Measured values reported in patent publication US20040229301A1 (published 2004).
Where “and” joins values, the source holds several entries; their conditions need not be identical. Identical values can stand only once.

Columns and labels:
[1] = biological target: T1, human tissue factor, endogenous, on tumor cell lines (H596; TF-positive SW900) (human, UniProt P13726 33-295); experiment: FACS on H596 cells
T1 construct: whole, on cells; also called hTF

[2] = biological target: full-length human tissue factor with C-terminal RGS-His6 tag, stably expressed on CHO-K1 cells (human, UniProt P13726 33-295); experiment: cell-based or functional assay
[3] = biological target: T2, soluble human tissue factor (extracellular domain of hTF with C-terminal RGS-His6 tag) (human, UniProt P13726 33-251); experiment: BIAcore X, soluble hTF immobilized on CM5 chip, mAb injected
T2 construct: leader left out (range computed from the stated lengths); Expressed in HEK293, purified on Ni-agarose and by gel filtration; also called soluble hTF; recombinant soluble hTF
Method: Binding properties of anti-hTF mAbs were evaluated using BIAcore X. Briefly, a CM5 BIAcore biosensor chip was docked into the instrument and activated with 55 μl of 1:1 NHS/EDC at room temperature. The recombinant soluble hTF and BSA (10 μg/ml in 0.05 M acetate buffer, pH 4.5) were immobilized on the activated chips in flow cells 1 and 2, respectively. The immobilization was carried out at a flow rate of 5 μl/min until a resonance response of 1000-2000 RU was achieved. The chip was then blocked by injection of 55 μl of ethanolamine-HCl, pH 8.5 followed by 5 washes with 50 mM NaOH, 1 M NaCl. To measure the binding of anti-hTF mAbs to the soluble hTF immobilized to the chip, 30 μl of anti-hTF mAbs at varying concentrations in BIAcore running buffer (HBS-EP, Biacore AB, Uppsala, Sweden, Cat. #1001-08) were injected over the sensor surface at a flow rate of 5 μl/min. Following completion of the injection phase, dissociation was monitored in BIAcore running buffer at the same flow rate for 360 seconds. The surface was regenerated between injections using 30 μl of 50 mM NaOH-1 M NaCl. Individual sensorgrams were analyzed using BIAsimulation software.

| Binder | EC50 [1] | Coagulation (seconds), Ab 10 ug/ml [2] | Kd [3] | koff [3] | Bmax [1] | kon [3] |
| --- | --- | --- | --- | --- | --- | --- |
| monoclonal anti-TF antibody TF278 (hybridoma cell line TF278, ATCC PTA-5676) (antibody, IgG1, V domains shown) VH: EVQLQQSGAELMKPGASVKISCKATGYTFSSYWIEWVKQRPGHGLEWIGEILPGSASTKYNEKFKGKATFTADTSSNTAYMQLSSLTSEDSAVYYCARDYYYGSSYGFAYWGQGTLVTVSS VL: QAVVTQESALTTSPGETVTLTCRSSTGAVTTSNYANWVQEKPDHLFTGLIGGTNNRGPGVPARFSGSLIGDKAALTITGAQTEDEAVYFCALWYSNHWVFGGGTKLTVLG | 0.48 nM and 1.14 nM | 190 s | 0.789 nM | 0.000138 s⁻¹ |  |  |
| monoclonal anti-TF antibody TF9 (hybridoma cell line TF9, ATCC PTA-5674) (antibody, V domains shown) VH: DVKLQESGPDLVKPSQSLSLTCTVTGYSITSGYSWHWIRQFPGNKLEWMGYIHYSGSTKYNPSLKSRISITRDTSKNQFFLQLNSVTTEDTATYYCARLWSWYFDVWGAGTTVTVSS VL: NIMMTQSPSSLAVSAGEKVTMSCKSSQSVLYSSNQKNYLAWYQQKPGQSPKLLIYWASTRESGVPDRFTGSGSGTDFTLTISSVQAEDLAVYYCHQYLSSYTFGGGTKLEIK |  | 195 s | 1.84 nM | 0.000364 s⁻¹ |  |  |
| monoclonal anti-TF antibody TF392 (hybridoma cell line TF392, ATCC PTA-5677) (antibody, IgG1, V domains shown) VH: QVQLKESGAELMKPGASVKISCKATGYTFSSYWIEWVKQRPGHGLEWIGEILPGSGSTNYNEKFKGKATFTADTSSNTAYMQLSSLTSEDSAVYYCARDRNGYVNYFDSWGQGTTLTVSS VL: QAVVTQESALTTSPGETVTLTCRSSTGAVTTSNYANWVQEKPDHLFTGLIGGTNNRAPGVPARFSGSLIGDKAALTITGAQTEDEAIYFCALWYSNHWVFGGGTKLTVLG | 6.29 nM | 210 s | 2.46 nM | 0.00013 s⁻¹ | 58 |  |
| monoclonal anti-TF antibody TF277 (hybridoma cell line TF277, ATCC PTA-5675) (antibody, IgG1, V domains shown) VH: QVQLQQPGAELVKPGASVKLSCKTSGYTFTSYWMHWVKQRPGQGLEWIGEIDPSDSYTNYNQKFKGKATLTVDKSSSTAYMQLSSLTSEDSAVYYCTYYVNYYAMDYWGQGTSVTVSS VL: QIVLTQSPAIMSASLGEEITLTCSASSSVSYMHWYQQKSGTSPKLLIYSTSNLASGVPSRFSGSGSGTFYSLTISSVEAEDAADYYCHQWSSYPYTFGGGTKLEIK | 0.48 nM and 0.71 nM | 202 s | 7.14 nM | 0.00312 s⁻¹ |  |  |
| monoclonal anti-TF antibody TF260 (hybridoma cell line TF260, ATCC PTA-5197) (antibody, V domains shown) VH: QVQLKQSGAELMKPGASVKISCKATGYTFSSYWIEWVKQRPGHGLEWIGEILPGSGSTNYNEKFKGKATFTADTSSNTAYMQLSSLTSEDSAVYYCAREDRYDGDYWGQGTTLTVS VL: QAVVTQESALTTSPGETVTLTCRSSTGAVTTSNYANWVQEKPDHLFTGLIGGTNNRAPGVPARFSGSLIGDKAALTITGAQTEDEAIYFCALWYSNHWVFGGGTKLTVLG |  |  | 19.3 nM | 0.000191 s⁻¹ |  | 9910 M⁻¹ s⁻¹ |
| monoclonal anti-TF antibody TF196 (hybridoma cell line TF196, ATCC PTA-5196) (antibody, V domains shown, Mouse hybridoma IgG) VH: QVQLKQSGPELEKPGASVKISCKASGYSFTGYNMNWVKQSNGKSLEWIGNIDPYYGGTSYNQKFKGKATLTVDKSSNTAYMHLKSLTSEDSAVYYCARDSSSWFAYWGQGTLVTVSA VL: DIQLTQSPASLSASVGETVTITCRASGNIHNYLAWYQQKQGKSPQLLVYNAKTLADGVPSRFSGSGSGTQYSLKINSLQPEDFGSYYCQHFWITPWTFGGGTKLEI |  |  | 66.3 nM | 0.00279 s⁻¹ |  | 42100 M⁻¹ s⁻¹ |
